Measured values: article PMC7316235, “Computational and structure-guided design of phosphoinositide substrate specificity into the tyrosine specific LMW-PTP enzyme” (PLoS ONE, 2020)
Numbering of substitutions follows the chain as printed. Read-outs that look alike come from different tables or passages of the source. One block for each molecule: values may come before it.

Columns and labels:
LMW-PTP (LMW-PTPB) [1] = biological target: T1, LMW-PTP (LMW-PTPB) (Homo sapiens, UniProt P24666, L14R/I17K, form not given); experiment: pNPP assay, Michaelis-Menten fit; type: biochemical; details: pH 5.5, 37 °C; read-out: RK / Km
T1 construct: gene ACP1; N-terminal 6xHis tag (pNIC28a-Bsa4, TEV-cleavable; cleavage described only for crystallisation); E. coli BL21-DE3
T1 sequence (P24666 1-158 isoform P24666-2 L14R/I17K): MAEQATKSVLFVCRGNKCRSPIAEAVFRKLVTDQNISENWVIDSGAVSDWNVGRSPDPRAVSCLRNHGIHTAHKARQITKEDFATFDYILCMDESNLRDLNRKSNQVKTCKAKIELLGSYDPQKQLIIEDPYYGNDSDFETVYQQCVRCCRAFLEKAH
From the text: (§1) pNPP assay, Michaelis-Menten fit on LMW-PTP (LMW-PTPB)

LMW-PTP (LMW-PTPB) [2] = biological target: T1, LMW-PTP (LMW-PTPB); experiment: malachite green phosphate release, Michaelis-Menten fit; type: biochemical; details: pH 5.5, 37 °C, diC8 lipid
From the text: (§2) malachite green phosphate release, Michaelis-Menten fit on LMW-PTP (LMW-PTPB)

LMW-PTP (LMW-PTPB) [3] = biological target: T2, LMW-PTP (LMW-PTPB) (Homo sapiens, UniProt P24666, L14R/I17T, form not given); experiment: as above; type: biochemical; details: pH 5.5, 37 °C, diC8 lipid
T2 construct: gene ACP1; N-terminal 6xHis tag (pNIC28a-Bsa4, TEV-cleavable; cleavage described only for crystallisation); E. coli BL21-DE3
T2 sequence (P24666 1-158 isoform P24666-2 L14R/I17T): T1 sequence (P24666 1-158 isoform P24666-2 L14R/I17K) with K17T
From the text: as §2

[4] = substrate: CCCCCCCC(=O)OC[C@H](COP(=O)(O)O[C@@H]1[C@H](O)[C@H](OP(=O)(O)O)[C@@H](O)[C@H](OP(=O)(O)O)[C@H]1O)OC(=O)CCCCCCC; experiment: as above; type: biochemical, Homo sapiens; details: pH 7.5, 37 °C, diC8 lipid
From the text: malachite green phosphate release, Michaelis-Menten fit on MTMR2

[5] = substrate: O=[N+]([O-])c1ccc(OP(=O)(O)O)cc1; experiment: pNPP assay, Michaelis-Menten fit; type: biochemical, Homo sapiens; details: pH 5.5, 37 °C
From the text: as §1

[6] = substrate: N[C@@H](Cc1ccc(OP(=O)(O)O)cc1)C(=O)O; experiment: malachite green phosphate release, Michaelis-Menten fit; type: biochemical, Homo sapiens; details: pH 5.5, 37 °C
From the text: as §2

Km (LMW-PTP (LMW-PTPB) [2]; read-out: RK / Km): 35.9 ± 6.3 µM
Km (LMW-PTP (LMW-PTPB) [2]; read-out: RKK / Km): 27.2 ± 7 µM
Km (LMW-PTP (LMW-PTPB) [3]; read-out: RT / Km): 29.2 ± 3.7 µM
Km (LMW-PTP (LMW-PTPB) [3]; read-out: RTK / Km): 26.2 ± 3.9 µM
Molecule: CCCCCCCC(=O)OC[C@H](COP(=O)(O)O[C@H]1[C@H](O)[C@@H](OP(=O)(O)O)[C@H](O)[C@@H](O)[C@H]1O)OC(=O)CCCCCCC [PI(5)P]

Km (LMW-PTP (LMW-PTPB) [2]; read-out: RK / Km): 30.7 ± 3.5 µM
Molecule: CCCCCCCC(=O)OC[C@H](COP(=O)(O)O[C@H]1[C@H](O)[C@@H](O)[C@H](OP(=O)(O)O)[C@@H](O)[C@H]1O)OC(=O)CCCCCCC [PI(4)P]

The remaining lines, values behind:

Molecule: O=[N+]([O-])c1ccc(OP(=O)(O)O)cc1 [pNPP]
Km (LMW-PTP (LMW-PTPB) [1]): 1.39 ± 0.105 mM

Molecule: CCCCCCCC(=O)OC[C@H](COP(=O)(O)O[C@@H]1[C@H](O)[C@H](OP(=O)(O)O)[C@@H](O)[C@H](O)[C@H]1O)OC(=O)CCCCCCC [PI(3)P]
Km (LMW-PTP (LMW-PTPB) [2]; read-out: RK / Km): 22.9 ± 5 µM

B1: MTMR2 (Homo sapiens) (protein)
chain: MEKSSSCESLGSQPAAARPPSVDSLSSASTSHSENSVHTKSASVVSSDSISTSADNFSPDLRVLRESNKLAEMEEPPLLPGENIKDMAKDVTYICPFTGAVRGTLTVTNYRLYFKSMERDPPFVLDASLGVINRVEKIGGASSRGENSYGLETVCKDIRNLRFAHKPEGRTRRSIFENLMKYAFPVSNNLPLFAFEYKEVFPENGWKLYDPLLEYRRQGIPNESWRITKINERYELCDTYPALLVVPANIPDEELKRVASFRSRGRIPVLSWIHPESQATITRCSQPMVGVSGKRSKEDEKYLQAIMDSNAQSHKIFIFDARPSVNAVANKAKGGGYESEDAYQNAELVFLDIHNIHVMRESLRKLKEIVYPNIEETHWLSNLESTHWLEHIKLILAGALRIADKVESGKTSVVVHCSDGWDRTAQLTSLAMLMLDGYYRTIRGFEVLVEKEWLSFGHRFQLRVGHGDKNHADADRSPVFLQFIDCVWQMTRQFPTAFEFNEYFLITILDHLYSCLFGTFLCNSEQQRGKENLPKRTVSLWSYINSQLEDFTNPLYGSYSNHVLYPVASMRHLELWVGYYIRWNPRMKPQEPIHNRYKELLAKRAELQKKVEELQREISNRSTSSSERASSPAQCVTPVQTVV
notes: E. coli BL21-DE3
Km [4]: 62 ± 4 µM
kcat [4]: 348 ± 17 x 10^-3 s^-1

B2: LMW-PTP (LMW-PTPB) (Homo sapiens) (protein)
chain: T1 sequence (P24666 1-158 isoform P24666-2 L14R/I17K) with R14L, K17I
notes: N-terminal 6xHis tag (pNIC28a-Bsa4, TEV-cleavable; cleavage described only for crystallisation); E. coli BL21-DE3
Km [5]: 476 ± 30.2 µM
kcat [5]: 6.03 ± 0.106 s⁻¹
kcat/Km [5]: 12700 ± 670 M⁻¹ s⁻¹
Km [6]: 307 ± 29 µM
kcat [6]: 0.000226 ± 1.9e-05 s⁻¹
kcat/Km [6]: 0.735 ± 0.054 M⁻¹ s⁻¹
